Reference: patent publication US20140105903A1 (Harvard, published 2014)
Blank lines part the entries; values can stand above or below the molecule they belong to.

Columns and labels:
[1] = molecular target: ANG binding sites on ANG receptor expressing LNCaP cells; test: radio receptor assay, 125I-ANG on LNCaP cells at 4 C, Scatchard analysis; second site
[2] = molecular target: ANG binding sites on ANG receptor expressing LNCaP cells; test: radio receptor assay, 125I-ANG on LNCaP cells at 4 C, Scatchard analysis
Angiogenin (human ANG) = molecular target: T1, Angiogenin (human ANG) (human, UniProt P03950 25-147, iodine-125 label in the radio receptor assay; coupled to Sepharose in the affinity chromatography); test: method not named at this place; Example 4 names ELISA and equilibrium dialysis
T1 construct: also called free ANG
T1 sequence (P03950 25-147 limits assumed): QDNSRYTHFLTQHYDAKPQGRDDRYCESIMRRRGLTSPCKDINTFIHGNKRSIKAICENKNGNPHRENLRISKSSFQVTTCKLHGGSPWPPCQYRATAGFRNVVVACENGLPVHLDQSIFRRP

- Kd [1]: 170 nM
- Kd [2]: 0.45 nM
Molecule: Angiogenin (human ANG) (from UniProt P03950 25-147) (ligand)

- Kd (Angiogenin (human ANG)): 200 nM
B1: Plexin B2 peptide GTSSEYDSILVEINKRVK (SEQ ID NO: 1) (peptide)
peptide: GTSSEYDSILVEINKRVK
notes: Chemically synthesized peptide from the region of Plexin B2 between residues 316 and 449
